Molecular target: purified native poly-γ-D-glutamic acid (γDPGA) from B. licheniformis strain 9945 (B. licheniformis)
Test: ELISA

| Substance | fold more mAb required for OD450 = 2.0 than with the IgG3 subclass [fold] |
| --- | --- |
| mAb F24F2 IgG1 subclass switch variant (antibody) | > 15 |
| mAb F24F2 IgG2a subclass switch variant (antibody) | > 15 |
| mAb F24F2 IgG2b subclass switch variant (antibody) | > 15 |
| mAb F26G3 IgG1 subclass switch variant (antibody) | > 15 |
| mAb F26G3 IgG2a subclass switch variant (antibody) | > 15 |
| mAb F26G3 IgG2b subclass switch variant (antibody) | > 15 |

— paper PMC3630167
